Results from PMC6134095 (2018).

B1: FtsB (22–103), periplasmic domain of E. coli FtsB (domain or fragment)
chain: GKNGIHDYTRVNDDVAAQQATNAKLKARNDQLFAEIDDLNGGQEALEERARNELSMTRPGETFYRLVPDASKRAQSAGQNNR
B2: FtsN (58–320) plus FtsB (22–103), bound together (other)
chain 1: GKNGIHDYTRVNDDVAAQQATNAKLKARNDQLFAEIDDLNGGQEALEERARNELSMTRPGETFYRLVPDASKRAQSAGQNNR
chain 2: HKKEESETLQSQKVTGNGLPPKPEERWRYIKELESRQPGVRAPTEPSAGGEVKTPEQLTPEQRQLLEQMQADMRQQPTQLVEVPWNEQTPEQRQQTLQRQRQAQQLAEQQRLAQQSRTTEQSWQQQTRTSQAAPVQAQPRQSKPASSQQPYQDLLQTPAHTTAQSKPQQAAPVARAADAPKPTAEKKDERRWMVQCGSFRGAEQAETVRAQLAFEGFDSKITTNNGWNRVVIGPVKGKENADSTLNRLKMAGHTNCIRLAAGG
B3: FtsN (57–319), periplasmic domain of E. coli FtsN (domain or fragment)
chain: HKKEESETLQSQKVTGNGLPPKPEERWRYIKELESRQPGVRAPTEPSAGGEVKTPEQLTPEQRQLLEQMQADMRQQPTQLVEVPWNEQTPEQRQQTLQRQRQAQQLAEQQRLAQQSRTTEQSWQQQTRTSQAAPVQAQPRQSKPASSQQPYQDLLQTPAHTTAQSKPQQAAPVARAADAPKPTAEKKDERRWMVQCGSFRGAEQAETVRAQLAFEGFDSKITTNNGWNRVVIGPVKGKENADSTLNRLKMAGHTNCIRLAAGG

Key:
[1] = biological target: T1, FtsQ (58–276), periplasmic domain of E. coli FtsQ (Escherichia coli strain K-12, UniProt P06136 58-276); experiment: SPR; major phase
T1 sequence (P06136 58-276): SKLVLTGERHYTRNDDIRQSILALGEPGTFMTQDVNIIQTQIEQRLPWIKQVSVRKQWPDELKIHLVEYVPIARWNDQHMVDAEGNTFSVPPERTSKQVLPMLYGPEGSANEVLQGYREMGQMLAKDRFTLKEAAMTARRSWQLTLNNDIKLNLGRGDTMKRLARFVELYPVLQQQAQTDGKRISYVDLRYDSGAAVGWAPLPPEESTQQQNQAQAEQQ

[2] = biological target: T1, FtsQ (58–276), periplasmic domain of E. …; experiment: SPR; minor phase
[3] = biological target: T1, FtsQ (58–276), periplasmic domain of E. …; experiment: SPR; minor phase; remark: listed apart in the source
[4] = biological target: T1, FtsQ (58–276), periplasmic domain of E. …; experiment: SPR

Row | Binder | koff [1] [s⁻¹] | koff [2] [s⁻¹] | Kd [3] [µM] | koff [4] [s⁻¹]
1 | B1 | 0.00021 | 0.031 | 11 | –
2 | B2 | 8.3e-05 | 0.03 | 5.6 | –
3 | B3 | – | – | – | 0.076
